Tested on: six V600E BRAF melanoma cell lines
Assay: Screening of recombinant RTK ligands for ability to confer resistance to BRAFi (PLX4720) or MEKi (PD184352) (Table 4)
Type: cell-based, human
Design: ability of recombinant RTK ligand to confer resistance / ability of recombinant RTK ligand to confer resistance (screening value): scale not given here
Outline: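 Six V600E BRAF melanoma lines treated with PLX4720 or PD184352 after addition of 22 recombinant RTK ligands, scored for drug resistance. Activation of selected RTKs confirmed by western blotting and high-throughput tyrosine kinase phosphorylation profiling.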

B1: BDNF (protein, UniProt P23560 19-247, looked up)
Neurotrophic factor BDNF …: APMKEANIRGQGGLAYPGVRTHGTLESVNGPKAGSRGLTSLADTFEHVIEELLDEDQKVRPNEENNKDADLYTSRVMLSSQVPLEPPLLFLLEEYKNYLDAANMSMRVRRHSDPARRGELSVCDSISEWVTAADKKTAVDMSGGTVTVLEKVPVSKGQLKQYFYETKCNPMGYTKEGCRGIDKRHWNSQCRTTQSYVRALTMDSKKRIGWRFIRIDTSCVCTLTIKRGR
B1 was tested, and the “ability of recombinant RTK ligand to confer resistance” value (“ability of recombinant RTK ligand” for short) (A2058, PD184352 - 1 uM, ligand 0.4 ng/ml) was 0.99, the “ability of recombinant RTK ligand” value (A2058, PD184352 - 1 uM, ligand 1.6 ng/ml) was 0.97 and the “ability of recombinant RTK ligand” value (A2058, PD184352 - 1 uM, ligand 6.25 ng/ml) was 0.94. The “ability of recombinant RTK ligand” value (A2058, PD184352 - 1 uM, ligand 25 ng/ml) was 1.03, the “ability of recombinant RTK ligand” value (A2058, PD184352 - 1 uM, ligand 100 ng/ml) was 1.10 and the “ability of recombinant RTK ligand” value (A2058, PLX4720 - 2 uM, ligand 0.4 ng/ml) was 1.00. For the same molecule, the “ability of recombinant RTK ligand” value (A2058, PLX4720 - 2 uM, ligand 1.6 ng/ml) was 0.95, the “ability of recombinant RTK ligand” value (A2058, PLX4720 - 2 uM, ligand 6.25 ng/ml) was 0.95 and the “ability of recombinant RTK ligand” value (A2058, PLX4720 - 2 uM, ligand 25 ng/ml) was 0.98. The “ability of recombinant RTK ligand” value (A2058, PLX4720 - 2 uM, ligand 100 ng/ml) was 1.15, the “ability of recombinant RTK ligand” value (C32, PD184352 - 1 uM, ligand 0.4 ng/ml) was 1.03 and the “ability of recombinant RTK ligand” value (C32, PD184352 - 1 uM, ligand 1.6 ng/ml) was 1.01. For the same molecule, the “ability of recombinant RTK ligand” value (C32, PD184352 - 1 uM, ligand 6.25 ng/ml) was 1.06, the “ability of recombinant RTK ligand” value (C32, PD184352 - 1 uM, ligand 25 ng/ml) was 1.03 and the “ability of recombinant RTK ligand” value (C32, PD184352 - 1 uM, ligand 100 ng/ml) was 0.95. For the same molecule, the “ability of recombinant RTK ligand” value (C32, PLX4720 - 2 uM, ligand 0.4 ng/ml) was 1.09, the “ability of recombinant RTK ligand” value (C32, PLX4720 - 2 uM, ligand 1.6 ng/ml) was 0.99 and the “ability of recombinant RTK ligand” value (C32, PLX4720 - 2 uM, ligand 6.25 ng/ml) was 1.02. For the same molecule, the “ability of recombinant RTK ligand” value (C32, PLX4720 - 2 uM, ligand 25 ng/ml) was 1.01, the “ability of recombinant RTK ligand” value (C32, PLX4720 - 2 uM, ligand 100 ng/ml) was 0.94 and the “ability of recombinant RTK ligand” value (Colo 829, PD184352 - 1 uM, ligand 0.4 ng/ml) was 1.03. For the same molecule, the “ability of recombinant RTK ligand” value (Colo 829, PD184352 - 1 uM, ligand 1.6 ng/ml) was 0.99, the “ability of recombinant RTK ligand” value (Colo 829, PD184352 - 1 uM, ligand 6.25 ng/ml) was 0.98 and the “ability of recombinant RTK ligand” value (Colo 829, PD184352 - 1 uM, ligand 25 ng/ml) was 0.98. For the same molecule, the “ability of recombinant RTK ligand” value (Colo 829, PD184352 - 1 uM, ligand 100 ng/ml) was 0.93, the “ability of recombinant RTK ligand” value (Colo 829, PLX4720 - 2 uM, ligand 0.4 ng/ml) was 1.02 and the “ability of recombinant RTK ligand” value (Colo 829, PLX4720 - 2 uM, ligand 1.6 ng/ml) was 1.00. For the same molecule, the “ability of recombinant RTK ligand” value (Colo 829, PLX4720 - 2 uM, ligand 6.25 ng/ml) was 0.96, the “ability of recombinant RTK ligand” value (Colo 829, PLX4720 - 2 uM, ligand 25 ng/ml) was 0.95 and the “ability of recombinant RTK ligand” value (Colo 829, PLX4720 - 2 uM, ligand 100 ng/ml) was 0.94. For the same molecule, the “ability of recombinant RTK ligand” value (G-361, PD184352 - 1 uM, ligand 0.4 ng/ml) was 1.09, the “ability of recombinant RTK ligand” value (G-361, PD184352 - 1 uM, ligand 1.6 ng/ml) was 0.95 and the “ability of recombinant RTK ligand” value (G-361, PD184352 - 1 uM, ligand 6.25 ng/ml) was 1.03. For the same molecule, the “ability of recombinant RTK ligand” value (G-361, PD184352 - 1 uM, ligand 25 ng/ml) was 0.91, the “ability of recombinant RTK ligand” value (G-361, PD184352 - 1 uM, ligand 100 ng/ml) was 0.91 and the “ability of recombinant RTK ligand” value (G-361, PLX4720 - 2 uM, ligand 0.4 ng/ml) was 0.98. For the same molecule, the “ability of recombinant RTK ligand” value (G-361, PLX4720 - 2 uM, ligand 1.6 ng/ml) was 0.82, the “ability of recombinant RTK ligand” value (G-361, PLX4720 - 2 uM, ligand 6.25 ng/ml) was 1.04 and the “ability of recombinant RTK ligand” value (G-361, PLX4720 - 2 uM, ligand 25 ng/ml) was 0.89. The “ability of recombinant RTK ligand” value (G-361, PLX4720 - 2 uM, ligand 100 ng/ml) was 0.87, the “ability of recombinant RTK ligand” value (SK-MEL-5, PD184352 - 1 uM, ligand 0.4 ng/ml) was 1.01 and the “ability of recombinant RTK ligand” value (SK-MEL-5, PD184352 - 1 uM, ligand 1.6 ng/ml) was 0.97. The “ability of recombinant RTK ligand” value (SK-MEL-5, PD184352 - 1 uM, ligand 6.25 ng/ml) was 1.01, the “ability of recombinant RTK ligand” value (SK-MEL-5, PD184352 - 1 uM, ligand 25 ng/ml) was 0.96 and the “ability of recombinant RTK ligand” value (SK-MEL-5, PD184352 - 1 uM, ligand 100 ng/ml) was 0.97. The “ability of recombinant RTK ligand” value (SK-MEL-5, PLX4720 - 2 uM, ligand 0.4 ng/ml) was 1.07, the “ability of recombinant RTK ligand” value (SK-MEL-5, PLX4720 - 2 uM, ligand 1.6 ng/ml) was 1.02 and the “ability of recombinant RTK ligand” value (SK-MEL-5, PLX4720 - 2 uM, ligand 6.25 ng/ml) was 1.07. For the same molecule, the “ability of recombinant RTK ligand” value (SK-MEL-5, PLX4720 - 2 uM, ligand 25 ng/ml) was 1.08, the “ability of recombinant RTK ligand” value (SK-MEL-5, PLX4720 - 2 uM, ligand 100 ng/ml) was 1.04 and the “ability of recombinant RTK ligand” value (SK-MEL-28, PD184352 - 1 uM, ligand 0.4 ng/ml) was 1.04. For the same molecule, the “ability of recombinant RTK ligand” value (SK-MEL-28, PD184352 - 1 uM, ligand 1.6 ng/ml) was 1.04, the “ability of recombinant RTK ligand” value (SK-MEL-28, PD184352 - 1 uM, ligand 6.25 ng/ml) was 0.91 and the “ability of recombinant RTK ligand” value (SK-MEL-28, PD184352 - 1 uM, ligand 25 ng/ml) was 0.97. The “ability of recombinant RTK ligand” value (SK-MEL-28, PD184352 - 1 uM, ligand 100 ng/ml) was 1.07, the “ability of recombinant RTK ligand” value (SK-MEL-28, PLX4720 - 2 uM, ligand 0.4 ng/ml) was 0.97 and the “ability of recombinant RTK ligand” value (SK-MEL-28, PLX4720 - 2 uM, ligand 1.6 ng/ml) was 1.12. The “ability of recombinant RTK ligand” value (SK-MEL-28, PLX4720 - 2 uM, ligand 6.25 ng/ml) was 0.99, the “ability of recombinant RTK ligand” value (SK-MEL-28, PLX4720 - 2 uM, ligand 25 ng/ml) was 1.08 and the “ability of recombinant RTK ligand” value (SK-MEL-28, PLX4720 - 2 uM, ligand 100 ng/ml) was 0.99.

Source: US20140348819A1, “Methods of Treating Cancer” (Dana-Farber Cancer Institute, Inc., priority 2011, published 2014)
